Experimental data published in US20230346919A1.

Target: Spike (S) protein of the SARS-CoV-2 clinical isolate, strain 2019 n-CoV/USA_WA1/2020 (SARS-CoV-2 strain 2019 n-CoV/USA_WA1/2020) (UniProt P0DTC2)
Assay: cell-based or functional assay

Substance | EC50, neutralization of SARS-CoV-2 (FRNT, Vero E6 cells) [µg/mL] | EC50, inhibition of SARS-CoV-2 infection (FRNT, Vero E6 cells) [µg/mL]
mAb S309 (antibody) | 0.081 | –
human ACE2-Fc (hACE2 residues 1-615, HRV-3C site, human IgG1 Fc) (from UniProt Q9BYF1 18-615) (Fc fusion) | – | 12.6
